Results on one protein are retold here after US20190160187A1 (CORNELL UNIVERSITY, published 2019).

This series deals with the molecule itself. In words: Western blot, HEK 293T-orf6 cells (self-association into a homotetramer). On the procedure: To assess ALDH2 tetramer formation from AAVrh.10hALDH2 directed expression of the human ALDH2 protein in vitro, HEK 293T cells were infected with the AAVrh.10hALDH2 vector or a control AAVrh.10-hα1 AT vector, and supernatant was harvested 72 hours later. Human ALDH2 tetramer formation in supernatant was evaluated by SDS-PAGE and Western analysis with an anti-HA antibody.

B1: human ALDH2 with C-terminal hemagglutinin (HA) tag, expressed from the AAVrh.10hALDH2 vector (enzyme)
chain: SAAATQAVPAPNQQPEVFCNQIFINNEWHDAVSRKTFPTVNPSTGEVICQVAEGDKEDVDKAVKAARAAFQLGSPWRRMDASHRGRLLNRLADLIERDRTYLAALETLDNGKPYVISYLVDLDMVLKCLRYYAGWADKYHGKTIPIDGDFFSYTRHEPVGVCGQIIPWNFPLLMQAWKLGPALATGNVVVMKVAEQTPLTALYVANLIKEAGFPPGVVNIVPGFGPTAGAAIASHEDVDKVAFTGSTEIGRVIQVAAGSSNLKRVTLELGGKSPNIIMSDADMDWAVEQAHFALFFNQGQCCCAGSRTFVQEDIYDEFVERSVARAKSRVVGNPFDSKTEQGPQVDETQFKKILGYINTGKQEGAKLLCGGGIAADRGYFIQPTVFGDVQDGMTIAKEEIFGPVMQILKFKTIEEVVGRANNSTYGLAAAVFTKDLDKANYLSQALQAGTVWVNCYDVFGAQSPFGGYKMSGSGRELGEYGLQAYTEVKTVTVKVPQKNS
notes: also called human aldehyde dehydrogenase 2; hALDH2-HA; not shown: C-terminal hemagglutinin (HA) tag
B1: the binding result is “binds”.
